# From publication PMC10415273
# B1: endogenous IRF3, Q14653 1-427 (natural protein)
# chain: MGTPKPRILPWLVSQLDLGQLEGVAWVNKSRTRFRIPWKHGLRQDAQQEDFGIFQAWAEATGAYVPGRDKPDLPTWKRNFRSALNRKEGLRLAEDRSKDPHDPHKIYEFVNSGVGDFSQPDTSPDTNGGGSTSDTQEDILDELLGNMVLAPLPDPGPPSLAVAPEPCPQPLRSPSLDNPTPFPNLGPSENPLKRLLVPGEEWEFEVTAFYRGRQVFQQTISCPEGLRLVGSEVGDRTLPGWPVTLPDPGMSLTDRGVMSYVRHVLSCLGGGLALWRAGQWLWAQRLGHCHTYWAVSEELLPNSGHGPDGEVPKDKEGGVFDLGPFIVDLITFTEGSGRSPRYALWFCVGESWPQDQPWTKRLVMVKVVPTCLRALVEMARVGGASSLENTVDLHISNSHPLSLTSDQYKAYLQDLVEGMDFQGPGES
# B2: endogenous mouse IRF3, P70671 1-419 (natural protein)
# chain: METPKPRILPWLVSQLDLGQLEGVAWLDESRTRFRIPWKHGLRQDAQMADFGIFQAWAEASGAYTPGKDKPDVSTWKRNFRSALNRKEVLRLAADNSKDPYDPHKVYEFVTPGARDFVHLGASPDTNGKSSLPHSQENLPKLFDGLILGPLKDEGSSDLAIVSDPSQQLPSPNVNNFLNPAPQENPLKQLLAEEQWEFEVTAFYRGRQVFQQTLFCPGGLRLVGSTADMTLPWQPVTLPDPEGFLTDKLVKEYVGQVLKGLGNGLALWQAGQCLWAQRLGHSHAFWALGEELLPDSGRGPDGEVHKDKDGAVFDLRPFVADLIAFMEGSGHSPRYTLWFCMGEMWPQDQPWVKRLVMVKVVPTCLKELLEMAREGGASSLKTVDLHISNSQPISLTSDQYKAYLQDLVEDMDFQATGNI
# Assays:
# [1] = target: T1, endogenous IRF3 (human (endogenous in HEK293)), Q14653; test: native gel or EMSA; S5 fractions of stimulated cells on 9% native PAGE (0.4% Doc-Na in running buffer, 4 °C); immunoblot of IRF3; details: remark: other sources report otherwise
# T1 chain: B1 chain
# [2] = target: T2, endogenous mouse IRF3 (mouse (endogenous in peritoneal macrophages)), P70671; test: as above; details: remark: other sources report otherwise
# T2 chain: B2 chain
Binder,stoichiometry N [1],stoichiometry N [2]
B1,2,–
B2,–,2
